In US20260125451A1:

B1: Telitacicept (RCT-18) (Fc fusion)
chain: SRVDQEERFPQGLWTGVAMRSCPEEQYWDPLLGTCMSCKTICNHQSQRTCAAFCRSLSCRKEQGKFYDHLLRDCISCASICGQHPKQCAYFCENKLRSPVNLPPELDKTHTCPPCPAPEAEGAPSVFLFPPKPKDTLMISRTPEVTCVVVDVSHEDPEVKFNWYVDGVEVHNAKTKPREEQYNSTYRVVSVLTVLHQDWLNGKEYKCKVSNKALPSSIEKTISKAKGQPREPQVYTLPPSRDELTKNQVSLTCLVKGFYPSDIAVEWESNGQPENNYKTTPPVLDSDGSFFLYSKLTVDKSRWQQGNVFSCSVMHEALHNHYTQKSLSLSPGK
B2: B746201 (protein)
heavy: EVQLVQSGAEVKKPGESLKISCKGSGYIFTNYWIAWVRQMPGKGLESMGIIYPGDSDIRYSPSFQGQVTISADKSITTAYLQWSSLKASDTAMYYCARHDIEGFDYWGRGTLVTVSSASTKGPSVFPLAPSSKSTSGGTAALGCLVKDYFPEPVTVSWNSGALTSGVHTFPAVLQSSGLYSLSSVVTVPSSSLGTQTYICNVNHKPSNTKVDKRVEPKSCDKTHTCPPCPAPEFEGGPSVFLFPPKPKDTLMISRTPEVTCVVVDVSHEDPEVKFNWYVDGVEVHNAKTKPREEQYNSTYRVVSVLTVLHQDWLNGKEYKCKVSNKALPASIEKTISKAKGQPREPQVYTLPPSRDELTKNQVSLTCLVKGFYPSDIAVEWESNGQPENNYKTTPPVLDSDGSFFLYSKLTVDKSRWQQGNVFSCSVMHEALHNHYTQKSLSLSPGKGGGGSGGGGSGGGGSMLQMAGQCSQNEYFDSLLHACIPCQLRCSSNTPPLTCQRYCSTSCREEQGEFYDHLLRDCISCASICGQHPKQCAAFCE
light: EIVLTQSPGTLSLSPGERATLSCRASQSVSSSFFAWYQQKPGQAPRLLIYGASSRATGIPDRLSGSGSGTDFTLTITRLEPEDFAVYYCQQYDSSAITFGQGTRLEIKRTVAAPSVFIFPPSDEQLKSGTASVVCLLNNFYPREAKVQWKVDNALQSGNSQESVTEQDSKDSTYSLSSTLTLSKADYEKHKVYACEVTHQGLSSPVTKSFNRGEC
B3: B805201 (protein)
heavy: EVQLVQSGAEVKKPGESLKISCKGSGYIFTNYWIAWVRQMPGKGLESMGIIYPGDSDIRYSPSFQGQVTISADKSITTAYLQWSSLKASDTAMYYCARHDIEGFDYWGRGTLVTVSSASTKGPSVFPLAPSSKSTSGGTAALGCLVKDYFPEPVTVSWNSGALTSGVHTFPAVLQSSGLYSLSSVVTVPSSSLGTQTYICNVNHKPSNTKVDKRVEPKSCDKTHTCPPCPAPEFEGGPSVFLFPPKPKDTLMISRTPEVTCVVVDVSHEDPEVKFNWYVDGVEVHNAKTKPREEQYNSTYRVVSVLTVLHQDWLNGKEYKCKVSNKALPASIEKTISKAKGQPREPQVYTLPPSRDELTKNQVSLTCLVKGFYPSDIAVEWESNGQPENNYKTTPPVLDSDGSFFLYSKLTVDKSRWQQGNVFSCSVMHEALHNHYTQKSLSLSPGKGGGGSGGGGSGGGGSSTSCREEQGEFYDHLLRDCISCASICGQHPKQCAAFCE
light: B2 light
B4: B637302 (protein)
heavy: EVQLVQSGAEVKKPGESLKISCKGSGYIFTNYWIAWVRQMPGKGLESMGIIYPGDSDIRYSPSFQGQVTISADKSITTAYLQWSSLKASDTAMYYCARHDIEGFDYWGRGTLVTVSSASTKGPSVFPLAPSSKSTSGGTAALGCLVKDYFPEPVTVSWNSGALTSGVHTFPAVLQSSGLYSLSSVVTVPSSSLGTQTYICNVNHKPSNTKVDKRVEPKSCDKTHTCPPCPAPEFEGGPSVFLFPPKPKDTLMISRTPEVTCVVVDVSHEDPEVKFNWYVDGVEVHNAKTKPREEQYNSTYRVVSVLTVLHQDWLNGKEYKCKVSNKALPASIEKTISKAKGQPREPQVYTLPPSRDELTKNQVSLTCLVKGFYPSDIAVEWESNGQPENNYKTTPPVLDSDGSFFLYSKLTVDKSRWQQGNVFSCSVMHEALHNHYTQKSLSLSPGK
light: EIVLTQSPGTLSLSPGERATLSCRASQSVSSSFFAWYQQKPGQAPRLLIYGASSRATGIPDRLSGSGSGTDFTLTITRLEPEDFAVYYCQQYDSSAITFGQGTRLEIKRTVAAPSVFIFPPSDEQLKSGTASVVCLLNNFYPREAKVQWKVDNALQSGNSQESVTEQDSKDSTYSLSSTLTLSKADYEKHKVYACEVTHQGLSSPVTKSFNRGECGGGGSGGGGSMLQMAGQCSQNEYFDSLLHACIPCQLRCSSNTPPLTCQRYCSTSCREEQGEFYDHLLRDCISCASICGQHPKQCAAFCE
B5: B606401 (protein)
heavy: B4 heavy
light: EIVLTQSPGTLSLSPGERATLSCRASQSVSSSFFAWYQQKPGQAPRLLIYGASSRATGIPDRLSGSGSGTDFTLTITRLEPEDFAVYYCQQYDSSAITFGQGTRLEIKRTVAAPSVFIFPPSDEQLKSGTASVVCLLNNFYPREAKVQWKVDNALQSGNSQESVTEQDSKDSTYSLSSTLTLSKADYEKHKVYACEVTHQGLSSPVTKSFNRGECGGGGSGGGGSSTSCREEQGEFYDHLLRDCISCASICGQHPKQCAAFCE

Biological target: BAFF and ARPIL
Assay: cell-based or functional assay

Row | CD27+ CD38+ plasma cell count, mean, BAFF + APRIL-induced, drug at 10 nM [count] | CD27+ CD38+ plasma cell count, mean, BAFF + APRIL-induced, drug at 100 nM [count] | CD27+ CD38+ plasma cell count, mean, BAFF + APRIL-induced, drug at 1000 nM [count] | Binder
1 | 2450 | 510 | 230 | B1
2 | 575 | 520 | 410 | B2
3 | 434 | 426 | 438 | B3
4 | 563 | 482 | 137 | B4
5 | 654 | 549 | 426 | B5
